Substrate in this data set: O=C(O)[C@@H](COP(=O)(O)O)O[C@H]1O[C@H](CO)[C@@H](O)[C@H](O)[C@H]1O
Description: purified protein. The note with it: pH 7.5; 37.0 °C.

B1: mGpgP (Rv2419c), recombinant GpgP from M. tuberculosis (Mycobacterium tuberculosis H37Rv) (protein)
chain: MRARRLVMLRHGQTDYNVGSRMQGQLDTELSELGRTQAVAAAEVLGKRQPLLIVSSDLRRAYDTAVKLGERTGLVVRVDTRLRETHLGDWQGLTHAQIDADAPGARLAWREDATWAPHGGESRVDVAARSRPLVAELVASEPEWGGADEPDRPVVLVAHGGLIAALSAALLKLPVANWPALGGMGNASWTQLSGHWAPGSDFESIRWRLDVWNASAQVSSDVL
The Km is the concentration of substrate that gives half-maximal velocity. On to B1, for which the Km was determined as 350 ± 30 µM.

Values taken from PMC3240985.
